Source: the DeepSol protein solubility set

assay: soluble on expression in E. coli; label from the status in PepcDB or PDB records

Row | Sequence | soluble on expression in E. coli
1 | SLTTEVVMENVTAFWEEGFGELFEKAKQNNNNRKTSNGDDSLSFSNFSLLGTPVLKDINFKIERGQLLAVAGSTGAGKTSLLMMIMGELEPSEGKIKHSGRISFCSQFSWIMPGTIKENIIFGVSYDEYRYRSVIKACQLEEDISKFAEKDNIVLGEGGITLSGGQRARISLARAVYKDADLYLLDSPFGYLDVLTEKEIFESCVCKLMANKTRILVTSKMEHLKKADKILILHEGSSYFYGTFSELQNLQPDFSSKLMGGGGGSGGGGSGGGGSDDIWPSGGQMTVKDLTAKYTEGGNAILENISFSISPGQRVGLLGRTGSGKSTLLSAFLRLLNTEGEIQIDGVSWDSITLQQWRKAFGVIPQKVFIFSGTFRKNLDPYEQWSDQEIWKVADEVGLRSVIEQFPGKLDFVLVDGGCVLSHGHKQLMCLARSVLSKAKILLLDQPSAHLDPVTYQIIRRTLKQAFADCTVILCEHRIEAMLECQQFLVIEENKVRQYDSIQKLLNERSLFRQAISPSDR | soluble
2 | GSTPITGPHIAYTEAVSDTQIMLKWTYIPSSNNNTPIQGFYIYYRPTDSDNDSDYKRDVVEGSKQWHMIGHLQPETSYDIKMQCFNEGGESEFSNVMICETK | soluble
3 | MIENIMSLQKGLPEEISALEEDLAFTSRQIEARKKIADERQKLRERLNSVIHDCKEKIKSFKEKQTLARNNKEYDALSKQIEYEEKEIAQAEIQLQDISHAEHHAQELQKKGRELIAENRYDEISEEMMPDDVLQQQMEDLGQQVRQKKEELESIVVETAEEVAQLKAVLSEQRSVVAQQAKRLLDKYDHLKSGSIQNAVVKLDRQACSGCNTRVPTNRHTLIVQGGFYVCESCGRIVVHERLFDEAAASGQQ | not soluble
4 | SNAIMAKTAKVAVSQIVEHPALDATRQGLLDGLKAKGYEEGKNLEFDYKTAQGNPAIAVQIARQFVGENPDVLVGIATPTAQALVSATKTIPIVFTAVTDPVGAKLVKQLEQPGKNVTGLSDLSPVEQHVELIKEILPNVKSIGVVYNPGEANAVSLMELLKLSAAKHGIKLVEATALKSADVQSATQAIAEKSDVIYALIDNTVASAIEGMIVAANQAKTPVFGAATSYVERGAIASLGFDYYQIGVQTADYVAAILEGKEPGSLDVQVAKGSDLVINKTAAEQLGITIPEAVLARATSTK | soluble
5 | MISVFDIFKIGIGPSSSHTVGPMKAGKQFTDDLIARHILTDVTRVVVDVYGSLSLTGKGHHTDIAIIMGLAGNLPDTVDIDAIPSFIQDVNTHGRLLLANGQHEVEFPVDKCMNFHADNLSLHENGMRITALAGDKVLYSQTYYSIGGGFIVDEEHFGLTNSEPVNVPYPYKTAADLQRHCQETGLSLSGLMMQNELALHSKEALEQHFARVWEVMRSGIERGITTEGVLPGKLRVPRRAAALRRMLVSQDKTTTDPMAVVDWINMFALAVNEENAAGGRVVTAPTNGACGIVPAVLAYYDKFIREVNANSLARYMLVASAIGSLYKMNASISGAEVGCQGEVGVACSMAAAGLAELLGGSPAQVCIAAEIAMEHNLGLTCDPVAGQVQVPCIERNAIASVKAVNAARMAVRRTSEPRVCLDKVIETMYETGKDMNAKYRETSRGGLAMKIVTCD | not soluble
6 | AEPDTESSELSGSVSYRIVSVVNTITASHWDEKELLDKAELIDYPVRKCAHMSEYAILTLLGFLTFSFLHGRGRFLVPIGVTFLYACTDEFHQLFVPGRAGR | not soluble
7 | MMGCLPTKQVGRSTHSLNPREAVALAAETSFTVNEVEALYDLFRKLSNSIIKDGLIHKEEFHLALFRNKKTNLFVDRVFDLFDQKGNGVIEFDEFVRSLSVFHPDAPEEQKAGFAFKLYDLRQTGFIERHELKEMVLALLDESDLNITSDAVEMIVDRTFDQADTKGDERIDQEEWNEFVKNNPYVLRNMTLPYLKDLTMVFPSFVIHSEVSEADMVA | soluble
8 | MAHHHHHHMAAYVGSVPPATLTTLAQREVELSLLQFLRQYHPKVDELWRTHPDAEPMETAEEMCMDASDDCKSDHLPRLHRELHDSYVQGRFLFLGESTQGLYSSQPWLAFWALQAADMLDITEKLYEHVSPDALGNFILGCLQEVKKSGTSNDDDMRNNPMDMDEQQESVLLRNPVSIFDDDNDDGKRLVGFAGGQLAQIPHLAASYAALCSLCILPRTTYLRALPRAAIKRWLLSLRCKDGSFCMHTGGEADIRASYCVAVMTVLLQLNDVPAYTDGRDDTVLTEQTAAFVASCQTHEGGFACGLNASEAHGAYTQCGLAALILMRYPHLCKYAALRRWLSARQLKFEGGFNGRTNKLVDSCYSYWVGASHMLLRVGESYMRLLGQTETPRCLTAREALLLDHAQLIDTTSMCPMDDDAWRHAEEIHRQRTAHVEAYLHAPSHSTWKQQTATQSFLDEDVGDFYFNQRRLLLYVLSCCQDKEMGGLMDKPGCLNDAYHTCYSLSGMSTAQNLQYLPRSCTNETLMYATALRRGYIPNERDDYEIVLAVHNSNRGVGCGCYRSQERLSPLNPIFNICQSRVLAALRTWGVKSFIC | soluble
9 | MLPSSIEDYALIGDCETAALVGRDGSIDWLCWPSFDSEACFAALLGNEDNGRWQIAPADEVVRCSRRYRGDSLILETTFETATGSITLIDFMPPRGSASDVVRLVRGDRGRVKVAMQLVIRFGYGVALEHHHHHH | not soluble
10 | MSLTKNKFDNRADKLGESWDLLNKEGRKIGLKHRGEPFKPGEWHSLVNASIFNYQHEILMQQRSFNKIGRPGEWDFETGGSVLASEDSLTAIKREVKEEVGLELNFSEENFVETFRNWPVFDNWYVIKADLSIKDIRIQKSELEQAKFMPFDQAIKYLSSNYLPYLLKAYKKLFGGENEGHHHHHH | not soluble
11 | MASDEGKLFVGGLSFDTNEQSLEQVFSKYGQISEVVVVKDRETQRSRGFGFVTFENIDDAKDAMMAMNGKSVDGRQIRVDQAGKSSDNR | soluble
12 | MPAFRMPPSTKVEYTSFGTKLSGAMKKIGLLSDTHGYIDEKYRIHFADCDEIWHAGDIGSVTVADYLSGLAPLRAVYGNIDGQDIRLQYPEVLRFCVEEVKVFMTHIGGYPGRYEPRIYRMLVQNPPRLFVCGHSHILKAMYDKKLDMLHLNPGAAGKYGFHAVRTLMRFVIDGRDIRDLQVIELADR | not soluble
13 | DPSEPGHADHLTAVMADAQPAIVLTNNASAAAVRRFFSALPGAQRPRIISIDSLPDTLAQSYQIPTPSMAAAAINPVDLPAFLQYTSGSTRTPAGVVLTNRSIVTNVLQIFAAAQLKTPLRLVSWLPL | not soluble
14 | MPHIAHRKNGTYDQSGFNCSLFCSFVQKQGCRTMIQLTTPVENPVIRERLISYANKLFFVGSCFSLEVGSYMRQAGFRTEINPFGIMYNPLSIAGCIGRLLDPVPYQAEELFEYDGLFHSFDHHGAFSHAKKEETLQHLNDSLHVGHEALLRSDRLFFTWGTAFVYNYVSANKVVANCHKLPERLFRRQMVGIDDLLAVWIPLIERLLSSSPDRRIILTVSPVRHLRDGAVGNQQSKATLVLFCKALTGRFPEHLYYFPAYEIMMDELRDYRYYADDMTHPSSLAVSIIRERFADIFVEKDHREAMDACLKLRRRMAHRPLHPDSPDAMLFEAQTQTLVSALLRKYPDLVLDDIAGEMES | not soluble
15 | MGSDKIHHHHHHMSLLDKLRELGISENLIKEIEKFRSQYPVDKEYESRIPVPTQFYYGSDVWEQAITAVLCGENLLLVGEKATGKNLFAENLAGVFNRPRWDVSFHVNMDAASLIGTDTFSAGEVTFRPGPVYTAAKTGGFAVLDEINMAKSEAMAVLHATLDFRRTIDVPGYDRLSLHPATRFIATMNYGYAGTKELNEALVSRFAVIRMPMISKESLVKLIKEHYPTIREAGANELAEVFLELHTKCKNGEISSKALDLRGLIGSIGMMEKGLNIYAALDMGITNKSFDEYEQTLIRDTIRARISRKMSREQLFC | not soluble
16 | MDMMMDKQEIKREYIEQEGHFETKSRRRELHIEILSEQTKSDIRNSKLVVMN | soluble
17 | MSLTSSQKDIINDILSAMQCYPENEAFIIDDKHYTYAQLGEITASITHSLSEIKDEKIGIVAENRIETYAAILAVLAGGKTYVILHPAYPEERNLKIAALAGLRTLLCTSDTDRSAFGTGHFRIIDTDRLPGKAQSEQQSHSSNEERNAYIIFTSGSTGEPKGVPITRANLNAFYRAYSLLDWNLDEHDRMLQMFELTFDVSVVSLLYPLTLGAAVYTVGHQDVKHFKVFELLEKYQLTFATVTPSLLQLLSPYFDEINLPSLKYLGVSAEASQTELLERFRKSVPNATFINLYGPTEATIYCTCYRIPASDKCKHYNGMVAIGKPFPGIRAIIADEEGNELPQGETGELWVSGRQVMKGYLDDPEKSALVLIHRPDGQIYYRTGDLCILDSDGDIIYCGRKDYQVKIQGFRIELSEIEYTAQSFFKTPCSVAAVPLLCDGICNELHLAVETTECTQSALIEYLKEKLPKYMLPKQIHCISQFPVTNSNKTDRKKIAELIKEGHHHHHH | soluble
18 | MAHHHHHHMPNNDSHDAQLLRHYAQFFPNVLFTSEEEMEKYCQDARPDAVKKVLDLPEGEEVPEDAMNDPRAHLYILKHIVGRNATTAAFVALRGSDKQKVVAKFIMLNDEKQAAYARSEVHCLAACDHFGIVKHYDDLKSEDKLLLIMEYGSGGDLNKQIKQRLKERLPFKEHEAGLLFYQIVLALDEVHSRKMMHRDLKSANIFLMPTGIIKLGDFGFSKQYTDSVSLDVGSSFCGTPYYLAPELWERKRYSKKADMWSLGVILYELLTLHRPFKGPSQREIMQQVLYGNYDPFPCGVSDGMKAVMEPLLSKDPALRPTTTQLLHTELMKYVANIFEEIVRNSEVIEKHDKERILRQLAESRAKAPPPNSIQAGAVSNDVVREGYLLKYSSDMKWKKRYFSIKNGQLRISLTDNPEKDGVSPKSASLETVNDVFPVPEAYCRSNPHQLVIWFTNGQKIIAMAKSAEERDQWISDFQRACGM | soluble
19 | MHKLIIKYNKQLKMLNLRDGKTYTISEDERADITLKSLGEVIHLEQNNQGTWQANHTSINKVLVRKGDLDDITLQLYTEADYASFAYPSIQDTMTIGPNAYDDMVIQSLMNAIIIKDFQSIQESQYVRIVHDKNTDVYINYELQEQLTNKAYIGDHIYVEGIWLEVQADGLNVLSQNTVASSLIRLTQEMPHAQADDYNTYHRSPRIIHREPTDDIKIERPPQPIQKNNTLEHHHHHH | soluble
20 | SRPRLSQLSVTDVTTSSLRLNWEAPPGAFDSFLLRFGVPSPSTLEPHPRPLLQRELMVPGTRHSAVLRDLRSGTLYSLTLYGLRGPHKADSIQGTARTL | soluble
21 | MFLSRGFNAFIAKPIDVMQLDAVLNTWVRDRKSIEILKQAEMIAPLIIENANQNIFDSVQIEGLDLVRGKKKYNNDAAYLDILRSWHKHTPALLEKMRNPVFENLSEYAITVHGIKGASLGICADEISSKAEELEHYAKSGNIGKVQADNSMFIGMAESLLANIGELLEKFDVGKKEKPKKHAPDPALLDRLLEAAKSYKSTLMEETMCSIESYDYDSDMELVTWLRQQMDDLEYDAIRQKLESRMPGFVET | not soluble
22 | SLRYSKLTMLIPCALLLSACTTVTPAYKDNGTRSGPCVEGGPDNVAQQFYDYRILHRSNDITALRPYLSDKLATLLSDASRDNNHRELLTNDPFSSRTTLPDSAHVASASTIPNRDARNIPLRVDLKQGDQGWQDEVLMIQEGQCWVIDDVRYLGGSVHATAGTLRQSIENR | not soluble
